Assay results published in patent publication US20120114667A1.
Blank lines part the entries; values can stand above or below the binder they belong to.

Target: avb3 and avb5 integrins on A375M cells
Assay: cell-based or functional assay

Osteopontin Adhesion (% inhibition) at 5 ug/ml, A375M cells: 3%
Vitronectin Adhesion (% inhibition) at 5 ug/ml, A375M cells: 10%
B1: 3C5 (antibody, IgG2, V domains shown)
VH: RVQLQESGPGLVKPSQTLSLTCTVSGGSIISGGYFWTWIRQHPGKGLEWIGYIYYSGSTYYSPSLKSRVTISVDTSKNQFSLKLSSVTAADTAVYYCTRAVPAAKGYYSYYGMDVWGQGTTVTVSS
VL: DIVMTQSPLSLPVTPGEPASISCRSSQSLLHSSGYNYLDWFLQKPGQSPQLLIYLSSNRASGVPDRFSGSGSGTDFTLKISRVEAEDVGVYYCMQALQTPFTFGPGTKVDIK

Osteopontin Adhesion (% inhibition) at 5 ug/ml, A375M cells: 13%
Vitronectin Adhesion (% inhibition) at 5 ug/ml, A375M cells: 9%
B2: 5B11 (antibody, IgG2, V domains shown)
VH: QVQLVESGGGVVQPGRSVRLSCAASGFTFSSYGMHWVRQTPGKGLEWVAIIWYDGGIEYYADSVKGRFTISRDNSKNTLYLQMNSLRAEDTAVYYCARDHRYGSSWFDYWGQGTLVTVSS
VL: DIQMTQSPSSLSASVGDRVTITCRASQGINNYLAWFQQKPGKAPKSLIYAASSLQSGVPSNFSGSGSGTDFTLSISSLQPEDFATYYCQQYKSYPLTFGGGTKVEIR
